Reference: patent US20250195629A1, “SITE-SPECIFIC BRAIN THERAPEUTICS” (William Marsh Rice University, priority 2023, published 2025)

Tests used:
[1] = previously available approach; cited from earlier work
[2] = Mouse body weight analysis; type: in vivo; set-up: key to Significance of body weight difference between day 0 and 3 days after systemic administration: ns (not significant); conditions: for Weight loss: day 0 vs 2 days after injection, RLuc8.6 100 mg/kg, AADC-IKVAV 250 mg/kg
Description: To assess the potential impact of the RAID approach on the body weight of the mice involved in behavior analysis (n=11 mice for the FUS alone+L-DOPA group and n=14 mice for the FUS+AADC-IKVAV (SEQ ID NO: 23)+L-DOPA group), their body weight was recorded on a daily basis before and after FUS-BBBO administration. […] The body weight of the additional group of mice was also recorded in a similar manner; however, unintentionally four mice were omitted from weighing on the day following the AADC-IKVAV (SEQ ID NO: 23) injection. Similarly, the mouse body weight was recorded before and after the intravenous injection of unmodified or engineered RLuc8.6, which is related to the study presented in FIG. 5.

[3] = In vivo bioluminescent imaging (BLI) of RLuc8.6 in the head region; set-up: species or system mouse
Description: (§1) FUS-BBBO—C57BL/6J male or female mice (12-18 weeks of age) were anaesthetized with 2.5% isoflurane in 1.5% O2 and shaved on top of skull using a trimmer. A catheter, made by a 30-gauge needle connected to PE10 tubing, was inserted into the tail vein, affixed in place using tissue glue and then flushed with 10 units (U) mL^−1 of heparin in sterile saline (0.9% NaCl). Subsequently, the mouse was mounted on the RK50 (FUS Instruments) stereotactic platform using the ear bars and bite bar/nose cone. A midline scalp incision was vertically made to expose the skull after disinfecting the site using three alternating scrubs of chlorhexidine scrub and chlorhexidine solution. The locations of Lambda and Bregma were registered in the RK50 software using the guild pointer. Next, sterile ultrasound gel was applied on the surface of skull before placing the ultrasound transducer in a tank, both of which were filled with degassed water. The mice were then sequentially injected via tail vein with purified recombinant protein in PBS buffer and approximately 1.5×10^6 DEFINITY microbubbles (Lantheus) per gram of body weight diluted in sterile saline. Immediately after injections of protein and microbubbles, the mice were insonated using RK-50 FUS system with axial and lateral diameter of 5 mm and 1.2 mm, respectively.
In vivo BLI—Two groups of mice (n=7 mice for FUS+RLuc8.6 group and n=3 mice for FUS alone group) underwent FUS-BBBO targeting one site at left striatum immediately after i.v. injection of RLuc8.6 (2 mg/mL, 8 mg/kg) or equivalent volume of PBS buffer. The third group of mice (n=6) was injected intravenously with the same dose of RLuc8.6 without FUS-BBBO procedure. BLI was conducted 1 h, 24 h, 48 h and 96 h after FUS insonation with an IVIS spectrum imager (Perkin Elmer). […] The bioluminescence signal was quantified by calculating the average radiance (p/s/cm^2/sr) in the head region of view C imaging using the Living Image software (Caliper Life Sciences).

[4] = Immunohistochemical analysis of RLuc8.6 after FUS-BBBO delivery; type: in vivo, mouse; conditions: 150 mg/kg i.v., FUS-BBBO 4 sites left striatum, 1 h post-delivery
Description: as §1, with “The mice were then sequentially injected via tail vein with purified recombinant protein in PBS buffer and approximately 1.5×10^6 DEFINITY microbubbles (Lantheus) per gram of body weight diluted in sterile saline. Immediately after injections of protein and microbubbles, the mice were insonated using RK-50 FUS system with axial and lateral diameter of 5 mm and 1.2 mm, respectively.” left out
Histological imaging—All histological images were obtained using a fluorescence microscope (BZ-X810, Keyence). To evaluate RLuc8.6 retention, as depicted in FIG. 2b and FIG. 3, we acquired fluorescence images of striatal sections using a ×4 objective in DAPI (nuclei) and far-red (RLuc8.6) channels. […]

[5] = Ex vivo BLI of brain sections, retention of unmodified or engineered RLuc8.6; type: in vivo, mouse
Description: as §1
Ex vivo analysis of engineered RLuc8.6—FUS was performed to target three sites in the left hemisphere of C57BL6J mice (n=5 mice per group) immediately after systemic administration of RLuc8.6 (20 mg/mL, 100 mg/kg) or engineered variant (20 mg/mL, 104 mg/kg) and microbubbles by tail vein injection. The dose of engineered RLuc8.6 was increased accordingly based on their molecular weight for injecting the same number of molecules as unmodified RLuc8.6. The control group (n=5 mice) was injected intravenously with the same dose of unmodified RLuc8.6 without FUS. The mice were euthanized using CO2 without perfusion at two time points (2-day and 7-day) after FUS-BBBO procedure. Immediately afterwards, the brains were extracted, washed with ˜20 mL PBS buffer in a 50 mL conical tube for 30 s, and then cut into 2 mm sections without olfactory bulb and brainstem using a coronal Slicer (Invitrogen). The sections were individually transferred into a 6-well glass bottom plate (Cellvis) filled with 2 mL PBS buffer. BLI was performed using an IVIS spectrum imager (Perkin Elmer) immediately after adding 1 mL dissolved CTZ (cat #303-INJ, Nanolight Technology) with a final concentration of 10 μM. The parameters used here were similar as in vivo BLI with is of exposure time and field of view C. The average radiance (p/s/cm^2/sr) of each brain section was quantified with the Living Image software (Caliper Life Sciences) and summed to compare the activity retention of RLuc8.6 among different groups.

[6] = FUS-BBBO + protein i.v., RLuc8.6-IKVAV 104 mg/kg

Molecule: NCCCC(=O)O [GABA]
- time the drug lasts in the brain after FUS-BBBO delivery [1]: approximately 100 minutes

B1: RLuc8.6: recombinant His-tagged luciferase, model protein enzyme converting coelenterazine into coelenteramide; CDS SEQ ID NO: 17 (protein)
chain: MRGSHHHHHHGMASMTGGQQMGRDLYDDDDKDPMASKVYDPEQRKRMITGPQWWARCKQMNVLDSFINYYDSEKHAENAVIFLHGNATSSYLWRHVVPHIEPVARCIIPDLIGMGKSGKSGNGSYRLLDHYKYLTAWFELLNLPKKIIFVGHDWGSALAFHYAYEHQDRIKAIVHMESVVDVIESWMGWPDIEEELALIKSEEGEKMVLENNFFVETLLPSKIMRKLEPEEFAAYLEPFKEKGEVRRPTLSWPREIPLVKGGKPDVVQIVRNYNAYLRASDDLPKLFIESDPGFFSNAIVEGAKKFPNTEFVKVKGLHFLQEDAPDEMGKYIKSFVERVLKNEQ
modifications: His tag; misc_feature 1..1032 Synthetic: RLuc8.6
- Significance of body weight difference between day 0 and 3 days after systemic administration ([2]; FUS-BBBO + protein i.v.): ns
- weight loss on day 3 compared to day 0 ([2]; FUS-BBBO + protein i.v.): no significant weight loss
- Weight loss [2, 6]: 3.4±0.7%
- Significance of body weight difference between day 0 and 3 days after systemic administration ([2]; protein i.v. alone without FUS): ns
- Weight loss ([2]; protein i.v. alone without FUS): 2.1 ± 0.6%
- IVIS enzyme levels vs controls ([3]; 8 mg/kg i.v., from 24 hours after FUS-BBBO onwards): statistically indistinguishable from controls
- bioluminescence signal averaged over the entire brain, FUS+RLuc8.6 vs RLuc8.6 alone without FUS ([3]; 8 mg/kg i.v., one FUS site left striatum, 1 h after FUS-BBBO, CTZ 3.5 mg/kg i.p.): 2.2(±0.3) fold
- upper threshold of enzyme concentration increase within the targeted site vs untargeted controls ([3]; calculated from volume of single BBB opening site (1% of brain volume)): approximately 220 fold
- average fluorescence intensity of RLuc8.6 immunostaining, FUS target region vs untargeted contralateral site [4]: significantly higher immunostaining signal
- enzyme function within the brain parenchyma ([5]; 7-day timepoint): remain functional

B2: RLuc8.6-IKVAV: fusion of RLuc8.6 and ECM-mimicking peptide IKVAV (SEQ ID NO: 23) via GS linker; CDS SEQ ID NO: 18 (protein)
chain: MRGSHHHHHHGMASMTGGQQMGRDLYDDDDKDPMASKVYDPEQRKRMITGPQWWARCKQMNVLDSFINYYDSEKHAENAVIFLHGNATSSYLWRHVVPHIEPVARCIIPDLIGMGKSGKSGNGSYRLLDHYKYLTAWFELLNLPKKIIFVGHDWGSALAFHYAYEHQDRIKAIVHMESVVDVIESWMGWPDIEEELALIKSEEGEKMVLENNFFVETLLPSKIMRKLEPEEFAAYLEPFKEKGEVRRPTLSWPREIPLVKGGKPDVVQIVRNYNAYLRASDDLPKLFIESDPGFFSNAIVEGAKKFPNTEFVKVKGLHFLQEDAPDEMGKYIKSFVERVLKNEQGGSGSSGGSGGSGGSGIKVAV
modifications: misc_feature 1..1095 Synthetic: RLuc8.6-IKVAV
- Significance of body weight difference between day 0 and 3 days after systemic administration ([2]; FUS-BBBO + protein i.v.): ns
- weight loss on day 3 compared to day 0 ([2]; FUS-BBBO + protein i.v.): no significant weight loss
- Weight loss [2, 6]: 3.2±0.8%
- mean activity improvement over unmodified RLuc8.6 ([5]; 2 days after FUS-BBBO, sum of average radiance in five sections): 2.3(±0.3) fold
- bioluminescence vs RLuc8.6 alone control at 7 days ([5]; 7 days after FUS-BBBO): significantly different
- level of bioluminescence vs control group without applying FUS ([5]; FUS-BBBO delivery, stated with FIG. 5e (7 days)): 113(±33) fold
- duration of retention in the brain ([5]; after a single session of FUS-BBBO delivery): 1 week
